Results as given in paper PMC9132474 (Science Advances, 2022).

Target: the molecule itself
Assay: cryo-EM structure

B1: human sodium-proton exchanger 3 (NHE3/SLC9A3) (natural protein, UniProt P48764 26-834, looked up)
chain: GGVEVEPGGAHGESGGFQVVTFEWAHVQDPYVIALWILVASLAKIGFHLSHKVTSVVPESALLIVLGLVLGGIVWAADHIASFTLTPTVFFFYLLPPIVLDAGYFMPNRLFFGNLGTILLYAVVGTVWNAATTGLSLYGVFLSGLMGDLQIGLLDFLLFGSLMAAVDPVAVLAVFEEVHVNEVLFIIVFGESLLNDAVTVVLYNVFESFVALGGDNVTGVDCVKGIVSFFVVSLGGTLVGVVFAFLLSLVTRFTKHVRIIEPGFVFIISYLSYLTSEMLSLSAILAITFCGICCQKYVKANISEQSATTVRYTMKMLASSAETIIFMFLGISAVNPFIWTWNTAFVLLTLVFISVYRAIGVVLQTWLLNRYRMVQLEPIDQVVLSYGGLRGAVAFALVVLLDGDKVKEKNLFVSTTIIVVFFTVIFQGLTIKPLVQWLKVKRSEHREPRLNEKLHGRAFDHILSAIEDISGQIGHNYLRDKWSHFDRKFLSRVLMRRSAQKSRDRILNVFHELNLKDAISYVAEGERRGSLAFIRSPSTDNVVNVDFTPRSSTVEASVSYLLRENVSAVCLDMQSLEQRRRSIRDAEDMVTHHTLQQYLYKPRQEYKHLYSRHELTPTEDEKQDREIFHRTMRKRLESFKSTKLGLNQNKKAAKLYKRERAQKRRNSSIPNGKLPMESPAQNFTIKEKDLELSDTEEPPNYDEEMSGGIEFLASVTKDTASDSPAGIDNPVFSPDEALDRSLLARLPPWLSPGETVVPSQRARTQIPYSPGTFCRLMPFRLSSKSVDSFLQADGPEERPPAALPESTHM
stoichiometry N: 2
